Measurements taken from patent publication US20220275046A1 (published 2022).

Molecular target: T1, MAGE-A2 peptide on HLA-DPA1*01:03 / HLA-DPB1*04:01 (human)
T1 peptide: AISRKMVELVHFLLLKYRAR
Test: multimer staining

binding result: recognises
B1: 06-MAGE-A2108-127 TCR (TCR, V domains shown)
Valpha: QKVTQAQTEISVVEKEDVTLDCVYETRDTTYYLFWYKQPPSGELVFLIRRNSFDEQNEISGRYSWNFQKSTSSFNFTITASQVVDSAVYFCALSVGTYKYIFGTGTRLKVLA
Vbeta: DTGVSQNPRHKITKRGQNVTFRCDPISEHNRLYWYRQTLGQGPEFLTYFQNEAQLEKSRLLSDRFSAERPKGSFSTLEIQRTEQGDSAMYLCASSPGTGGRETQYFGPGTRLLVL
